Test results as given in patent US20260250421A1 (BIOCYTOGEN PHARMACEUTICALS BEIJING, published 2026).
Residue numbers refer to the chain shown, from its start.

T1: His-tagged monkey TROP2 protein (cynomolgus monkey; Rhesus …, UniProt A0A5F8AGB8 27-274)
T1 construct: also called cTROP2-His; ACRO Biosystems Cat# TR2-R52H3
T1 sequence: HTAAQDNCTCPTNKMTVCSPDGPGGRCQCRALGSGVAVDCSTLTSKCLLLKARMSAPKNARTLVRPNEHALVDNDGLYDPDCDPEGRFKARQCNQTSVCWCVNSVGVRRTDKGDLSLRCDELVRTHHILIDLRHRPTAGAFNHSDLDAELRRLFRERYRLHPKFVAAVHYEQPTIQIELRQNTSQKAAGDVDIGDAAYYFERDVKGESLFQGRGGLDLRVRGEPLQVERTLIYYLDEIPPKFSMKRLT

T2: His-tagged human TROP2 protein (human, UniProt P09758 27-274)
T2 construct: Bought protein; also called hTROP2-His; ACRO Biosystems Cat# TR2-H5223; not shown: His tag
T2 sequence (looked up): T1 sequence with V36M, N67S, V204I

T3: His-tagged human PTK7 protein (human, UniProt Q13308 31-704)
T3 construct: Bought protein; also called hPTK7-His; not shown: His tag
T3 sequence: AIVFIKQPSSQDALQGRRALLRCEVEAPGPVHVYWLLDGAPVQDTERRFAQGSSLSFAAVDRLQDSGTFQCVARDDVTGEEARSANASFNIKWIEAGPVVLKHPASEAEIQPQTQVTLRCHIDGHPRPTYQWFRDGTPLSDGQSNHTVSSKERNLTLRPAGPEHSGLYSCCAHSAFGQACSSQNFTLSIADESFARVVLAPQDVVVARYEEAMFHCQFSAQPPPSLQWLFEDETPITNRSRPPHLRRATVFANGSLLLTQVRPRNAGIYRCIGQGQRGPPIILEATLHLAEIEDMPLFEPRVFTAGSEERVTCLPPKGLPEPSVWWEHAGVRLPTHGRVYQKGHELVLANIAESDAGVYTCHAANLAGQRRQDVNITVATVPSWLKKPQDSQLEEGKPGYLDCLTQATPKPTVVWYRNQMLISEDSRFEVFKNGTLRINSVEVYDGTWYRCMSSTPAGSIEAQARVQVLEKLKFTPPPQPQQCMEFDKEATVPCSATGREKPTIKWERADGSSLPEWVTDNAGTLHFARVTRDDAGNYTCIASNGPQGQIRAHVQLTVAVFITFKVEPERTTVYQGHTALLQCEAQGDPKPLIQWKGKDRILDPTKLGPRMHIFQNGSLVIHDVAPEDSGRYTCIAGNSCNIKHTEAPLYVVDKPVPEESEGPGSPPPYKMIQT

T4: His-tagged cynomolgus monkey PTK7 protein (cynomolgus monkey, UniProt A0A2K5VNI5 39-712)
T4 construct: Bought protein; also called cPTK7-His; ACRO Biosystems Cat# PT7-C52H3; not shown: His tag
T4 sequence: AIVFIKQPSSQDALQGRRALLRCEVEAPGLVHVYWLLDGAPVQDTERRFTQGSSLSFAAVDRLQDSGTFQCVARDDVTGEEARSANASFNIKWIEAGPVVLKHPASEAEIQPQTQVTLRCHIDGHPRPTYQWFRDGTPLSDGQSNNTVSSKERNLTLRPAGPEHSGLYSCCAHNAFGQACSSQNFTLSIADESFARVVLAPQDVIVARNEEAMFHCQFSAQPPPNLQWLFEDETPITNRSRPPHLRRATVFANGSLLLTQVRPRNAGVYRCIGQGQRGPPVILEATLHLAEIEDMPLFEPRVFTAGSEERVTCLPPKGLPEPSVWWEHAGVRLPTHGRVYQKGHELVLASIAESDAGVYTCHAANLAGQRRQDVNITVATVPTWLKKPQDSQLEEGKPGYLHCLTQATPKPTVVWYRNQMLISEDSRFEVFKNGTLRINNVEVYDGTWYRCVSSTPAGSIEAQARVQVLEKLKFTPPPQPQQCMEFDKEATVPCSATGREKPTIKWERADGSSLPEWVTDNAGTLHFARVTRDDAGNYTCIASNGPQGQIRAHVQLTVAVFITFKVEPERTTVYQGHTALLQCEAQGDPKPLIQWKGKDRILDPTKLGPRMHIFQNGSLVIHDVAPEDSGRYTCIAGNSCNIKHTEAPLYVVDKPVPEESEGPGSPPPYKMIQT

T5: His-tagged dog PTK7 protein (dog, UniProt Q13308 31-703 (human entry))
T5 construct: also called dPTK7-His
T5 chain: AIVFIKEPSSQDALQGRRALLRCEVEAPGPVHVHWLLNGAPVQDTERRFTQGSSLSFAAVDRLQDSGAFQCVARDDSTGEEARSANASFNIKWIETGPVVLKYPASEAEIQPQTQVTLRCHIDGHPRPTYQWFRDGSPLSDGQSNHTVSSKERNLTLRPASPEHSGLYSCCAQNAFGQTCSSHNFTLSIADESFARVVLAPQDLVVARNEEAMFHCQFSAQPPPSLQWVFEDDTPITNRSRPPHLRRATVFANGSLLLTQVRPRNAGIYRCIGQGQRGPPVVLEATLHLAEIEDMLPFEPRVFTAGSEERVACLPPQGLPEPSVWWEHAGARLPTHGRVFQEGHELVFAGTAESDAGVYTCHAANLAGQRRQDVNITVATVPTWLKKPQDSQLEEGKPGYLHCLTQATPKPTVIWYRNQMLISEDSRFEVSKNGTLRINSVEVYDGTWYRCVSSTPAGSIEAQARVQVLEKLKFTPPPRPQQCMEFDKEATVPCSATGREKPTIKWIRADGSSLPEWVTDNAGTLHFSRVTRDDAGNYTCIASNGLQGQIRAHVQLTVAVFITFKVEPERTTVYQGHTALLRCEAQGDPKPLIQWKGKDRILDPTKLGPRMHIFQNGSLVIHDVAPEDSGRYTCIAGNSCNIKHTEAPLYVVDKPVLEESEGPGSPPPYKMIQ

B1: 3E6-18E9 (bispecific antibody, V domains shown)
VH 1: QVQLVESGAEVKKPGESLRISCRGSGYSFTSYWISWVRQMPGKGLEWMGRIDPSDSYTKYSPSFQGHVTISADKSISTAYLQWSSLKASDTAMYYCARRDGDYFDFDYWGQGTLVTVSS
VH 2: QLQLQQSGPGLLKPSETLSLTCTVSGGSISSSYYFWGWIRQPPGKGLEWIGAIYYIGNTHYNPSLKSRVTISIDTSKNQFSLNLNSVTAADTAIYYCARYEDTWNWFDPWGQGTLVTVSS
VL: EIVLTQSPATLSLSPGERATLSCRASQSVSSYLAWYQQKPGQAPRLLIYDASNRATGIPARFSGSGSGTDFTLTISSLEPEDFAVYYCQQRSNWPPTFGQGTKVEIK
notes: also called anti-PTK7/TROP2 bispecific antibody 3E6-18E9
B2: 3E6-6F7 (bispecific antibody, V domains shown)
VH 1: B1 VH 1
VH 2: EVQLVQSGPGLVKPSETLSLTCTVSGGSIDSGYYYWGWIRQPPGKGLEWIGSIYYIGTTYYIPSLKSRVTISVDTSKNRFSLKLTSVTAADTAVYYCARQPITVAGHDAFDIWGQGTMVTVSS
VL: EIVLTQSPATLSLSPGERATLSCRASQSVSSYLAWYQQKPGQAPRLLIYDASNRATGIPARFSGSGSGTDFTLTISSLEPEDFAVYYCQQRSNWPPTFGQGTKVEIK
notes: also called anti-PTK7/TROP2 bispecific antibody 3E6-6F7
B3: 3C4-18F12 (bispecific antibody, V domains shown)
VH 1: B1 VH 1 with V5E, E6Q, G8R, R23K, K59N, S61N, D102S
VH 2: QLQLKESGPGLVKPSETLSLTCTVSGGSISYYYWSWIRQPPGMGLEWIGNIYYSGDTNYNPSLRSRVTISIDMSKNQFSLRLNSVTAADTAVYYCARYDMFKWNYEAFDVWGQGTMVTVSS
VL: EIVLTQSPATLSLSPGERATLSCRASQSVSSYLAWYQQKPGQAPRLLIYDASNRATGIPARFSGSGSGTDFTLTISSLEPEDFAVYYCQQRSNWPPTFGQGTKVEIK
notes: also called anti-PTK7/TROP2 bispecific antibody 3C4-18F12
B4: 3E6-18F12 (bispecific antibody, V domains shown)
VH 1: B1 VH 1
VH 2: B3 VH 2
VL: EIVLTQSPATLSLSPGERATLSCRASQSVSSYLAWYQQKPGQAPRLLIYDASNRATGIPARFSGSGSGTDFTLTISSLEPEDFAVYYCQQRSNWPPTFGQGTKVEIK
notes: also called anti-PTK7/TROP2 bispecific antibody 3E6-18F12
B5: 3C4-6F7 (bispecific antibody, human IgG1, kappa)
heavy 1: not shown
heavy 2: EVQLVQSGPGLVKPSETLSLTCTVSGGSIDSGYYYWGWIRQPPGKGLEWIGSIYYIGTTYYIPSLKSRVTISVDTSKNRFSLKLTSVTAADTAVYYCARQPITVAGHDAFDIWGQGTMVTVSSASTKGPSVFPLAPSSKSTSGGTAALGCLVKDYFPEPVTVSWNSGALTSGVHTFPAVLQSSGLYSLSSVVTVPSSSLGTQTYICNVNHKPSNTKVDKKVEPKSCDKTHTCPPCPAPELLGGPSVFLFPPKPKDTLMISRTPEVTCVVVDVSHEDPEVKFNWYVDGVEVHNAKTKPREEQYNSTYRVVSVLTVLHQDWLNGKEYKCKVSNKALPAPIEKTISKAKGQPREPQVCTLPPSREEMTKNQVSLSCAVKGFYPSDIAVEWESNGQPENNYKTTPPVLDSDGSFFLVSKLTVDKSRWQQGNVFSCSVMHEALHNHYTQKSLSLSPGK
light: not shown
notes: Knobs-into-holes IgG1 with common light chain; also called anti-PTK7/TROP2 bispecific antibody 3C4-6F7

Each binder was assayed against T1, His-tagged monkey TROP2 protein (assay: SPR Biacore 8K, Ab on Protein A chip).

Row | Binder | Kd [µM] | koff [s⁻¹] | kon [M⁻¹ s⁻¹]
1 | B1 | 0.00366 | 0.00119 | 325000
2 | B2 | 0.00807 | 0.00284 | 352000
3 | B3 | 0.0121 | 0.00252 | 209000
4 | B4 | 0.0139 | 0.00231 | 166000
5 | B5 | 0.00594 | 0.00179 | 301000

These binders were tested against T2, His-tagged human TROP2 protein (assay: SPR Biacore 8K, Ab on Protein A chip).
Method: (§1) The affinity of the anti-PTK7/TROP2 bispecific antibodies to His-tagged human TROP2 protein (hTROP2-His, ACRO Biosystems Inc., Cat #: TR2-H5223), His-tagged […] monkey TROP2 protein (cTROP2-His, ACRO Biosystems Inc., Cat #: Cat: TR2-R52H3), His-tagged dog TROP2 protein (dTROP2-His, ACRO Biosystems Inc., Cat #: TR2-C52H4), hPTK7-His, cPTK7-His and dPTK7-His were measured by surface plasmon resonance (SPR) using Biacore™ (Biacore, INC, Piscataway N.J.) 8K biosensor equipped with pre-immobilized Protein A sensor chips.

Row | Binder | Kd [µM] | koff [s⁻¹] | kon [M⁻¹ s⁻¹]
6 | B1 | 0.00323 | 0.00116 | 360000
7 | B2 | 0.351 | 0.0455 | 130000
8 | B3 | 0.0112 | 0.0025 | 224000
9 | B4 | 0.0137 | 0.00244 | 178000
10 | B5 | 0.0106 | 0.00419 | 394000

These binders were tested against T3, His-tagged human PTK7 protein (assay: SPR Biacore 8K, Ab on Protein A chip).
Method: as §1

Row | Binder | Kd [µM] | koff [s⁻¹] | kon [M⁻¹ s⁻¹]
11 | B1 | 0.00314 | 0.000389 | 124000
12 | B2 | 0.00267 | 0.000369 | 138000
13 | B3 | 0.0115 | 0.00139 | 121000
14 | B4 | 0.00243 | 0.000329 | 135000
15 | B5 | 0.0132 | 0.00152 | 115000

The binders below were run against T4, His-tagged cynomolgus monkey PTK7 … (assay: SPR Biacore 8K, Ab on Protein A chip).
Method: as §1

Row | Binder | Kd [µM] | koff [s⁻¹] | kon [M⁻¹ s⁻¹]
16 | B1 | 0.0052 | 0.000623 | 120000
17 | B2 | 0.0046 | 0.000522 | 114000
18 | B3 | 0.0148 | 0.00173 | 117000
19 | B4 | 0.00498 | 0.000649 | 130000
20 | B5 | 0.0174 | 0.00216 | 124000

Target: T5, His-tagged dog PTK7 protein
Assay: SPR Biacore 8K, Ab on Protein A chip
Method: as §1

Row | Binder | Kd [µM] | koff [s⁻¹] | kon [M⁻¹ s⁻¹]
21 | B1 | 0.0167 | 0.00164 | 98300
22 | B2 | 0.0206 | 0.00197 | 95500
23 | B3 | 0.0362 | 0.00426 | 118000
24 | B4 | 0.0164 | 0.00172 | 105000
25 | B5 | 0.0525 | 0.006 | 114000
